What was measured:
Test in all cases: holdup assay
Set-up in all cases: key: below the threshold = too weak to quantify, mostly under pKd 3.1 to 4
[1] = target: CASK, O14936
[2] = target: Inadl_10, Q8NI35
[3] = target: DLG1_2, Q12959
[4] = target: GIPC2, Q8TF65
[5] = target: SNX27, Q96L92
[6] = target: T1, HTRA3, P83110
T1 sequence (P83110 354-453, limits assumed, looked up): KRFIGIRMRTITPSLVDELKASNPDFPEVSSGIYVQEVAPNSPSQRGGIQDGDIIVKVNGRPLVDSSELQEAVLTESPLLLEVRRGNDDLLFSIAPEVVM

[7] = target: T2, SNTG1, Q9NSN8
T2 sequence (Q9NSN8 52-150, limits assumed, looked up): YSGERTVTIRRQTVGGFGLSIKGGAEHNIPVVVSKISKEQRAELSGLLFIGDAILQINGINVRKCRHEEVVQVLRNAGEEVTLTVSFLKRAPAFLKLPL

[8] = target: T3, LNX2_2, Q8N448
T3 sequence (Q8N448 334-432, limits assumed, looked up): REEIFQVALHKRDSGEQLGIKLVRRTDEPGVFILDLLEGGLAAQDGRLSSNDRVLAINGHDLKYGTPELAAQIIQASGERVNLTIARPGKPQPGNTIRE

[9] = target: MAGI2_6, Q86UL8
[10] = target: T4, DFNB31_2, Q9P202
T4 sequence (Q9P202 274-371, limits assumed, looked up): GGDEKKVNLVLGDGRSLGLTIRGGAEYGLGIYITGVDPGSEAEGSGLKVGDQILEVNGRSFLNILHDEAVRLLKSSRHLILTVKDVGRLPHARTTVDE

[11] = target: PICK1, Q9NRD5
[12] = target: GOPC, Q9HD26
[13] = target: Inadl_4, Q8NI35
[14] = target: T5, ARHGEF11, O15085
T5 sequence (O15085 42-136, limits assumed, looked up): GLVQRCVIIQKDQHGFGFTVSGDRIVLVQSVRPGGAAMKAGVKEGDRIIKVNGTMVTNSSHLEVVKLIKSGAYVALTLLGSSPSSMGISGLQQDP

[15] = target: T6, APBA3_1, O96018
T6 sequence (O96018 389-490, limits assumed, looked up): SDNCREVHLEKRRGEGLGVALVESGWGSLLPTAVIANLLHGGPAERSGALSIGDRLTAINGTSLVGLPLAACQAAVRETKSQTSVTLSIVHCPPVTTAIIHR

[16] = target: IL16_3, Q14005
[17] = target: T7, DFNB31_3, Q9P202
T7 sequence (Q9P202 811-907, limits assumed, looked up): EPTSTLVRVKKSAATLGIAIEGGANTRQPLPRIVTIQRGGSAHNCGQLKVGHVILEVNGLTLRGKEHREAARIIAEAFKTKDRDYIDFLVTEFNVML

[18] = target: PTPN3, P26045
[19] = target: NOS1, P29475
[20] = target: TJP1_3, Q07157
[21] = target: T8, SNTB1, Q13884
T8 sequence (Q13884 107-205, limits assumed, looked up): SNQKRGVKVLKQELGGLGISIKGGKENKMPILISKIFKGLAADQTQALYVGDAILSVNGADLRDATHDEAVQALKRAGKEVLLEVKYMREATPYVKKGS

[22] = target: T9, MPDZ_12, O75970
T9 sequence (O75970 1857-1958, limits assumed, looked up): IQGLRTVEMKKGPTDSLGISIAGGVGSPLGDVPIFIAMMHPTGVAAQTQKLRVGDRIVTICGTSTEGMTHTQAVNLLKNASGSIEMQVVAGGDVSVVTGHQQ

[23] = target: SCRIB_1, Q14160
[24] = target: T10, RAPGEF6, Q8TEU7
T10 sequence (Q8TEU7 525-625, limits assumed, looked up): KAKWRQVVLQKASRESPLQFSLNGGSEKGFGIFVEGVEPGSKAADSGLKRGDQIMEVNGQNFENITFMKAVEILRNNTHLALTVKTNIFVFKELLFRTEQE

[25] = target: NHERF4_2, Q86UT5
[26] = target: DLG1_1, Q12959
[27] = target: T11, TJP3_3, O95049
T11 sequence (O95049 375-456, limits assumed, looked up): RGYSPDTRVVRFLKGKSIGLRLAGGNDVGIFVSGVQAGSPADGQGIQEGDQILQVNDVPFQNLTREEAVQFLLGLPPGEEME

[28] = modified: phospho on T at position -2 from the C-terminal residue
[29] = plain residues with an end cap or a label only (N-terminal biotin on a linker: ado-ado)

SCRIB_1, Q14160, sequence (Q14160 718-814): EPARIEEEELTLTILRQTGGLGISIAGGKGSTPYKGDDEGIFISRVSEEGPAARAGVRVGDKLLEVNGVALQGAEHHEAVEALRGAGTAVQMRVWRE
NOS1, P29475, sequence (P29475 9-101): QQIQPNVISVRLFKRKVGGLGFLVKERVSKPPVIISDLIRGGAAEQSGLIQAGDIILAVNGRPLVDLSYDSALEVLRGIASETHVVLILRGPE
NHERF4_2, Q86UT5, sequence (Q86UT5 220-308): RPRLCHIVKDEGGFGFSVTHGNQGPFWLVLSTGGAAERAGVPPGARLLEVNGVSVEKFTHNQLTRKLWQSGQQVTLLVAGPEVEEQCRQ
Inadl_4, Q8NI35, sequence (Q8NI35 547-651): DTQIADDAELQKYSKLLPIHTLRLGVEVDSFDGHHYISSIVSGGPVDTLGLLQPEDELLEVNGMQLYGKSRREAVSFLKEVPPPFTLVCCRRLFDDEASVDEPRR
Inadl_10, Q8NI35, sequence (Q8NI35 1673-1763): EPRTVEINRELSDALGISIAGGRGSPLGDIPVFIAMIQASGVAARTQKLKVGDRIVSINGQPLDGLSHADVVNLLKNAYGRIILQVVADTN
IL16_3, Q14005, sequence (Q14005 1107-1207): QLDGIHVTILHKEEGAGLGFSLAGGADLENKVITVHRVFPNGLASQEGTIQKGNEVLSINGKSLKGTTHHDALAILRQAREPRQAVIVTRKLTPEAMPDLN
PTPN3, P26045, sequence (P26045 505-587): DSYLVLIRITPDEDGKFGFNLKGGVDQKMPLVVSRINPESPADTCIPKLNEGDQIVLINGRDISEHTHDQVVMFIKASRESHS
MAGI2_6, Q86UL8, sequence (Q86UL8 1141-1229): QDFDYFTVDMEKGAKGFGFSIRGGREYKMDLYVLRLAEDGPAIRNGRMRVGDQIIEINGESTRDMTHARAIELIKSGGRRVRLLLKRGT
PICK1, Q9NRD5, sequence (Q9NRD5 17-115): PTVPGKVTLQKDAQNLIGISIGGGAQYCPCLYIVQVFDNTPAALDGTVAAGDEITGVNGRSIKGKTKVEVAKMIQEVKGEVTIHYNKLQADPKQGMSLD
TJP1_3, Q07157, sequence (Q07157 416-512): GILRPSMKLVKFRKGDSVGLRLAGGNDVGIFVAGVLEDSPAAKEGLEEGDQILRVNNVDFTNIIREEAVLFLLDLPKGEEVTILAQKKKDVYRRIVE
CASK, O14936, sequence (O14936 487-570): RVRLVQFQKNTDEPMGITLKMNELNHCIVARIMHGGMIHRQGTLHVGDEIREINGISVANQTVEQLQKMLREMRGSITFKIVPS
GIPC2, Q8TF65, sequence (Q8TF65 112-203): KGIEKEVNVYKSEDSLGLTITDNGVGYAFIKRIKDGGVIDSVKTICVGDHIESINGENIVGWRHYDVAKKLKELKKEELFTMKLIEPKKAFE

SRSRRRETAL [HPV33-E6_-2P, P06427]
pKd [1, 28]: below the threshold
pKd [2, 28]: below the threshold
pKd [3, 28]: below the threshold
pKd [4, 28]: below the threshold
pKd [5, 28]: below the threshold
pKd [6, 28]: below the threshold
pKd [7, 28]: below the threshold
pKd [8, 28]: below the threshold
pKd [9, 28]: below the threshold
pKd [10, 28]: below the threshold
pKd [11, 28]: below the threshold
pKd [12, 28]: below the threshold
pKd [13, 28]: below the threshold
pKd [14, 28]: below the threshold
pKd [15, 28]: below the threshold
pKd [16, 28]: below the threshold
pKd [17, 28]: 4.02
pKd [18, 28]: 4.02
pKd [19, 28]: 3.75
pKd [20, 28]: below the threshold
pKd [21, 28]: below the threshold
pKd [22, 28]: below the threshold
pKd [23, 28]: below the threshold
pKd [24, 28]: below the threshold
pKd [25, 28]: below the threshold
pKd [26, 28]: below the threshold
pKd [27, 28]: below the threshold

DYSNLRETDI [ADRA1D, P25100]
pKd [1, 29]: below the threshold
pKd [2, 29]: below the threshold
pKd [3, 29]: 4.74
pKd [4, 29]: 3.8
pKd [5, 29]: 4.21
pKd [6, 29]: below the threshold
pKd [7, 29]: 5.55
pKd [8, 29]: below the threshold
pKd [9, 29]: 4.31
pKd [10, 29]: below the threshold
pKd [11, 29]: 4.1
pKd [12, 29]: below the threshold
pKd [13, 29]: below the threshold
pKd [14, 29]: below the threshold
pKd [15, 29]: below the threshold
pKd [16, 29]: below the threshold
pKd [17, 29]: 3.91
pKd [18, 29]: 4.57
pKd [19, 29]: below the threshold
pKd [20, 29]: below the threshold
pKd [21, 29]: 5.57
pKd [22, 29]: below the threshold
pKd [23, 29]: 4.95
pKd [24, 29]: below the threshold
pKd [25, 29]: below the threshold
pKd [26, 29]: 4.1
pKd [27, 29]: below the threshold

SAGADSETHC [SLCO1B1, Q9Y6L6]
pKd [1, 29]: below the threshold
pKd [2, 29]: below the threshold
pKd [3, 29]: below the threshold
pKd [4, 29]: 3.71
pKd [5, 29]: 4.65
pKd [6, 29]: below the threshold
pKd [7, 29]: 3.66
pKd [8, 29]: below the threshold
pKd [9, 29]: below the threshold
pKd [10, 29]: below the threshold
pKd [11, 29]: below the threshold
pKd [12, 29]: below the threshold
pKd [13, 29]: below the threshold
pKd [14, 29]: below the threshold
pKd [15, 29]: below the threshold
pKd [16, 29]: below the threshold
pKd [17, 29]: 3.55
pKd [18, 29]: 4.01
pKd [19, 29]: below the threshold
pKd [20, 29]: below the threshold
pKd [21, 29]: 3.87
pKd [22, 29]: below the threshold
pKd [23, 29]: 3.68
pKd [24, 29]: below the threshold
pKd [25, 29]: below the threshold
pKd [26, 29]: below the threshold
pKd [27, 29]: below the threshold

GVHSNDHSVV [LPAR1, Q92633]
pKd [1, 29]: below the threshold
pKd [2, 29]: below the threshold
pKd [3, 29]: 3.99
pKd [4, 29]: below the threshold
pKd [5, 29]: below the threshold
pKd [6, 29]: below the threshold
pKd [7, 29]: below the threshold
pKd [8, 29]: 4.26
pKd [9, 29]: below the threshold
pKd [10, 29]: below the threshold
pKd [11, 29]: below the threshold
pKd [12, 29]: 3.59
pKd [13, 29]: below the threshold
pKd [14, 29]: 3.58
pKd [15, 29]: below the threshold
pKd [16, 29]: below the threshold
pKd [17, 29]: below the threshold
pKd [18, 29]: below the threshold
pKd [19, 29]: below the threshold
pKd [20, 29]: below the threshold
pKd [21, 29]: 3.69
pKd [22, 29]: below the threshold
pKd [23, 29]: below the threshold
pKd [24, 29]: below the threshold
pKd [25, 29]: below the threshold
pKd [26, 29]: 3.74
pKd [27, 29]: below the threshold

WAKEKQHTRL [SLC17A1, Q14916]
pKd [1, 29]: below the threshold
pKd [2, 29]: below the threshold
pKd [3, 29]: 4.27
pKd [4, 29]: below the threshold
pKd [5, 29]: 4.28
pKd [6, 29]: below the threshold
pKd [7, 29]: below the threshold
pKd [8, 29]: below the threshold
pKd [9, 29]: below the threshold
pKd [10, 29]: below the threshold
pKd [11, 29]: below the threshold
pKd [12, 29]: 4.91
pKd [13, 29]: below the threshold
pKd [14, 29]: 4.25
pKd [15, 29]: below the threshold
pKd [16, 29]: below the threshold
pKd [17, 29]: below the threshold
pKd [18, 29]: 3.85
pKd [19, 29]: 3.71
pKd [20, 29]: below the threshold
pKd [21, 29]: 3.82
pKd [22, 29]: below the threshold
pKd [23, 29]: 4.21
pKd [24, 29]: below the threshold
pKd [25, 29]: below the threshold
pKd [26, 29]: 3.64
pKd [27, 29]: below the threshold

From article PMC9482650, “Quantitative fragmentomics allow affinity mapping of interactomes” (Nature Communications, 2022)
